Stoichiometry N data for 2 substances are collected here from paper PMC7126439.

One may read the stoichiometry N as the number of molecules, sites or subunits per partner or assembly.

The target of one assay is GCN4-pA. Nature of the assay: AUC.
The target in a further assay is GCN4-pV. The assay can be described thus: AUC.

Take GCN4-pA (peptide): the stoichiometry N with GCN4-pA was found to be 4.

As for GCN4-pV (peptide), in the assay with GCN4-pV, the stoichiometry N was 4.
